Measurements taken from publication PMC3226482 (Molecular Biology of the Cell, 2011).

What was measured:
karyopherin β2 = target: T1, karyopherin β2 (human, UniProt Q92973 1-898); assay: ITC
T1 sequence: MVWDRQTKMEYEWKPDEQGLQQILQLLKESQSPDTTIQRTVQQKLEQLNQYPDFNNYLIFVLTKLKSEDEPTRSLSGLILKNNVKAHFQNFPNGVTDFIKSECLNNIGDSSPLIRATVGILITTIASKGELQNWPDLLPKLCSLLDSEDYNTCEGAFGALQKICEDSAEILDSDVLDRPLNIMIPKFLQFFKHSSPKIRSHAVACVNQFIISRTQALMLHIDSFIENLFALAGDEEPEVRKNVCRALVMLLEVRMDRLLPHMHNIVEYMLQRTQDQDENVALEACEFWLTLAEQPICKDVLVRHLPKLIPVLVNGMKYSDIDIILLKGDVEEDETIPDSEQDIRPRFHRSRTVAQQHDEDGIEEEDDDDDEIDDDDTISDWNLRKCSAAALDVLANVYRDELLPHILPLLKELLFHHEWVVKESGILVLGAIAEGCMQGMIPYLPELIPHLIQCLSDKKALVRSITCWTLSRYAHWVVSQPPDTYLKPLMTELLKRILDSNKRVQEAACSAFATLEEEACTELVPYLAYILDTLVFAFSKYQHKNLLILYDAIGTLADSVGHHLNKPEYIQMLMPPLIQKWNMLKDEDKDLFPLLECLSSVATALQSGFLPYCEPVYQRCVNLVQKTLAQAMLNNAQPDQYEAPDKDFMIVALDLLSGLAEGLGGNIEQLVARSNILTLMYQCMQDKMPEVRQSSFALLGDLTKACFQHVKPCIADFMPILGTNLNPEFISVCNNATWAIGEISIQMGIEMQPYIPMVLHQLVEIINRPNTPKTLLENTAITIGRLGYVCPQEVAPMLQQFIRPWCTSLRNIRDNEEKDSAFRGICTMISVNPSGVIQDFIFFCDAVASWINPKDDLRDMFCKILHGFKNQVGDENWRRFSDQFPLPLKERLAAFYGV

importin β = importin β (human, UniProt Q14974 1-876); assay: ITC
[1] = target: RanGTP (recombinant human Ran loaded with GTP) (human, UniProt P62826 1-216); assay: pull-down

Chain of importin β (Q14974 whole entry): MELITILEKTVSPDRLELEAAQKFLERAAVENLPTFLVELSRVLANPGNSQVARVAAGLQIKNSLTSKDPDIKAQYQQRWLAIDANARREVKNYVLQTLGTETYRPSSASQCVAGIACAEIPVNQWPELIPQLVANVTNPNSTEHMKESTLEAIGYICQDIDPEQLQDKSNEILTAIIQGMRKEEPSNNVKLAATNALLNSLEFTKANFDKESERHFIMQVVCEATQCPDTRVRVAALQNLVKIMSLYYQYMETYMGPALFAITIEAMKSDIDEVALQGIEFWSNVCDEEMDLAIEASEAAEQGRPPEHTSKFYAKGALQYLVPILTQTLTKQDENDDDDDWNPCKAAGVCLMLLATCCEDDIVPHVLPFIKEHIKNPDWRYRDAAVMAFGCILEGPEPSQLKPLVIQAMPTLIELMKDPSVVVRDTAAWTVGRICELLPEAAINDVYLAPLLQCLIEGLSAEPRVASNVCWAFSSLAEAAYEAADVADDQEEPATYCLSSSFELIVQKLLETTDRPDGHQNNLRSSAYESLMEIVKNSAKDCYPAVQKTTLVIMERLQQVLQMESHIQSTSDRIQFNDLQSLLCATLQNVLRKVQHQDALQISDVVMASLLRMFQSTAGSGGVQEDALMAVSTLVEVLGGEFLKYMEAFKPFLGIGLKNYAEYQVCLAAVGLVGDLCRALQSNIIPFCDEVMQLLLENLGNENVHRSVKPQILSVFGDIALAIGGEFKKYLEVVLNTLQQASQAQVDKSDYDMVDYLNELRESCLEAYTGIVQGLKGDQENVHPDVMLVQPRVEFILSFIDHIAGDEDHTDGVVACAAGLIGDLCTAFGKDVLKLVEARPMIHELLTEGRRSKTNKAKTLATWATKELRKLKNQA

B1: MBP-hsNXF1-N(21-30/A) (domain or fragment)
chain: MADEGKSYSEHDDERVNFPQAAAAAAAAAAWKYGEGNRRSGRGGSGIRSSRLEEDDGDVAMSDAQDGPRVRYNPYTTRPNRRGDTWHDRDRIHVTVRRDRAPPERGGAG
B1 was tested, and the Kd (karyopherin β2) was 128 nM, the dH (karyopherin β2) was -13.9 kcal/mol and the Kd (importin β) was 2230 nM. For the same binder, the dH (importin β) was -2.48 kcal/mol.

B2: MBP-hsNXF1-N(71-75/A) (domain or fragment)
chain: MADEGKSYSEHDDERVNFPQRKKKGRGPFRWKYGEGNRRSGRGGSGIRSSRLEEDDGDVAMSDAQDGPRVAAAAATTRPNRRGDTWHDRDRIHVTVRRDRAPPERGGAG
For B2, the Kd (karyopherin β2) was 215 nM, the dH (karyopherin β2) was -12.9 kcal/mol and the “dH (two-site model, site 1)” value (importin β) was -7.73 kcal/mol. For the same binder, the “dH (two-site model, site 2)” value (importin β) was -3.28 kcal/mol.

B3: importin 4 (natural protein)
chain: MESAGLEQLLRELLLPDTERIRRATEQLQIVLRAPAALPALCDLLASAADPQIRQFAAVLTRRRLNTRWRRLAAEQRESLKSLILTALQRETEHCVSLSLAQLSATIFRKEGLEAWPQLLQLLQHSTHSPHSPEREMGLLLLSVVVTSRPEAFQPHHRELLRLLNETLGEVGSPGLLFYSLRTLTTMAPYLSTEDVPLARMLVPKLIMAMQTLIPIDEAKACEALEALDELLESEVPVITPYLSEVLTFCLEVARNVALGNAIRIRILCCLTFLVKVKSKALLKNRLLPPLLHTLFPIVAAEPPPGQLDPEDQDSEEEELEIELMGETPKHFAVQVVDMLALHLPPEKLCPQLMPMLEEALRSESPYQRKAGLLVLAVLSDGAGDHIRQRLLPPLLQIVCKGLEDPSQVVRNAALFALGQFSENLQPHISSYSREVMPLLLAYLKSVPLGHTHHLAKACYALENFVENLGPKVQPYLPELMECMLQLLRNPSSPRAKELAVSALGAIATAAQASLLPYFPAIMEHLREFLLTGREDLQPVQIQSLETLGVLARAVGEPMRPLAEECCQLGLGLCDQVDDPDLRRCTYSLFAALSGLMGEGLAPHLEQITTLMLLSLRSTEGIVPQYDGSSSFLLFDDESDGEEEEELMDEDVEEEDDSEISGYSVENAFFDEKEDTCAAVGEISVNTSVAFLPYMESVFEEVFKLLECPHLNVRKAAHEALGQFCCALHKACQSCPSEPNTAALQAALARVVPSYMQAVNRERERQVVMAVLEALTGVLRSCGTLTLKPPGRLAELCGVLKAVLQRKTACQDTDEEEEEEDDDQAEYDAMLLEHAGEAIPALAAAAGGDSFAPFFAGFLPLLVCKTKQGCTVAEKSFAVGTLAETIQGLGAASAQFVSRLLPVLLSTAQEADPEVRSNAIFGMGVLAEHGGHPAQEHFPKLLGLLFPLLARERHDRVRDNICGALARLLMASPTRKPEPQVLAALLHALPLKEDLEEWVTIGRLFSFLYQSSPDQVIDVAPELLRICSLILADNKIPPDTKAALLLLLTFLAKQHTDSFQAALGSLPVDKAQELQAVLGLS
B3: binds [1].
